Numbered stars: 1 amine (or outer) side, 2 acyl side, 3 side chain; on linkers, the order of the positions; unused ones are H or OH. Square brackets hold non-standard residues; d marks the D form. * marks the point of attachment. C20 diacid = O=C(O)CCCCCCCCCCCCCCCCCCC(=O)*; γGlu = O=C(O)[C@H](CCC(=O)[*:2])N[*:1]; AEEA = NCCOCCOCC(=O)O
T1: human calcitonin receptor (human, UniProt P30988 25-474)
T1 construct: whole, on cells; Assay VII: membranes on SPA beads; also called hCT-R; hCTR
T1 sequence (looked up): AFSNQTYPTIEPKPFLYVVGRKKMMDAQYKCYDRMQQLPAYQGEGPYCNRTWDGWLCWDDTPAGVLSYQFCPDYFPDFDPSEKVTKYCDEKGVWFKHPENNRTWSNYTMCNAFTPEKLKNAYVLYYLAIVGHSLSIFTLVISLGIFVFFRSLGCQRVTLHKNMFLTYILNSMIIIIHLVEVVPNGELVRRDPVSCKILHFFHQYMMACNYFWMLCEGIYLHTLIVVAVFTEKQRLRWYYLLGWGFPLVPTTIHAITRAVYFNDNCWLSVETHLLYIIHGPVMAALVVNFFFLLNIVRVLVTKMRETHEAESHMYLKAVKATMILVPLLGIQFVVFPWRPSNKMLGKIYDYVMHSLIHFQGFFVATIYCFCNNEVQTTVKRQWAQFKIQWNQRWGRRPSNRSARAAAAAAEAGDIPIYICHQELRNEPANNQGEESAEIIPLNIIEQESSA

T2: human amylin receptor (amylin 3(a) receptor: human calcitonin receptor with RAMP-3) (human, UniProt P30988 25-474; O60896 24-148, limits assumed)
T2 construct: whole, on cells; Assay V: membranes of the Amylin 3(a)/CRE-luc BHK cells on SPA beads; also called hAmylin-R
T2 sequence (looked up) 1: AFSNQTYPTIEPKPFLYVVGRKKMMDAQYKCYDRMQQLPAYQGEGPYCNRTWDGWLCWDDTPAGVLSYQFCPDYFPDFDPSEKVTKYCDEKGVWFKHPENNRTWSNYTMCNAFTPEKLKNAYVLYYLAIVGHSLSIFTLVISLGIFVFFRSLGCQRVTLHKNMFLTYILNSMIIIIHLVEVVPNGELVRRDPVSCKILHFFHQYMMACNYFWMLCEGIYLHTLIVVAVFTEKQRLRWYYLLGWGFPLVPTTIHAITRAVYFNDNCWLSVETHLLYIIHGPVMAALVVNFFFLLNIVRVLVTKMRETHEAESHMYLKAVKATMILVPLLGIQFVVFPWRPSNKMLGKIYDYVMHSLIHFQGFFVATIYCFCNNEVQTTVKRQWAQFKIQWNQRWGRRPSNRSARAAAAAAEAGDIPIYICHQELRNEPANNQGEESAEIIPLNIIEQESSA
T2 sequence (looked up) 2: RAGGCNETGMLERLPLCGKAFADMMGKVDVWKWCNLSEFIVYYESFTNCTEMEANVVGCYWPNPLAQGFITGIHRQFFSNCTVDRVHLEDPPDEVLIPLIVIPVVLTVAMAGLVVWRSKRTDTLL


Legend:
[1] = biological target: T1, human calcitonin receptor; test: SPA competition vs 125I-calcitonin, membranes with human CTR (Assay VII)
Description: The binding assay was performed using scintillation proximity assay (SPA) beads (RPNQ0001) from PerkinElmer® and cell membranes prepared from a BHK tk'ts 13 cell line was stably transfected with the human calcitonin receptor and a CRE-responsive luciferase reporter gene. Membranes were prepared in the following way; the cells were rinsed with PBS and incubated with Versene for approximately 5 min before harvesting. The cells were flushed with PBS and the cell-suspension was centrifuged for 5 min at 1000 rpm.
(§1) EDTA (pH 7.4, buffer 2). The resulting pellet was resuspended in buffer 2 and protein concentration was tested (BCA protein Assay, Pierce). The homogenate was kept cold during the whole procedure. The membranes were kept at −80° C. until use. Assay was performed in a 384 well Optiplate (PerkinElmer®) in a total volume of 40 ul. Membranes were mixed with SPA beads. Final concentration of membranes 35 ng/μL final and Final concentration of SPA beads was 0.05 mg/well. Test-compounds were dissolved in DMSO and further diluted in assay buffer (50 mM Hepes, pH 7.4, 1 mM CaCl2, 5 mM MgCl2, 0.1% OA and 0.02% Tween20). […] Samples were analyzed on TopCounter™ (Packard). The IC₅₀ was calculated using (one site binding competition analysis) GraphPad Prism5 as a measure of receptor affinity.

[2] = biological target: T2, human amylin receptor (amylin 3(a) …); test: SPA competition vs 125I-rat amylin, membranes with human CTR + RAMP-3 (Assay V)
Description: as §1, with “The binding assay was performed using scintillation proximity assay (SPA) beads (RPNQ0001) from PerkinElmer and cell membranes from the Amylin 3(a)/CRE-luc cells (as described in Assay (II)) were used. Membranes were prepared in the following way; the cells were rinsed with PBS and incubated with Versene for approximately 5 min before harvesting. The cells were flushed with PBS and the cell-suspension was centrifuged for 5 min at 1000 rpm. […] The” for “EDTA (pH 7.4, buffer 2). The”, “use. The assay” for “use. Assay”, “Optiplate (PerkinElmer)” for “Optiplate (PerkinElmer®)”, “and” for “and Final concentration of”

| Binder | IC50 [1] [nM] | IC50 [2] [nM] |
| --- | --- | --- |
| {C20 diacid-γGlu-AEEA}-ASELSTAALGRLSAELHELATLPRTETGSGSP-NH2 (mimylin derivative; des1 = residue 1 deleted; also called Ex. #41; 41) [[N-terminal(C20 diacid-gGlu-OEG), des1, 30S, 31G]mimylin] | 0.085 | 0.141 |
| {C20 diacid-γGlu}-ASELSTATLGRLSAELHELSTYPRTETGSGSY-NH2 (SMILES CC(C)C[C@H](NC(=O)[C@H](CCCNC(=N)N)NC(=O)CNC(=O)[C@H](CC(C)C)NC(=O)[C@@H](NC(=O)[C@H](C)NC(=O)[C@@H](NC(=O)[C@H](CO)NC(=O)[C@H](CC(C)C)NC(=O)[C@H](CCC(=O)O)NC(=O)[C@H](CO)NC(=O)[C@H](C)NC(=O)CC[C@H](NC(=O)CCCCCCCCCCCCCCCCCCC(=O)O)C(=O)O)[C@@H](C)O)[C@@H](C)O)C(=O)N[C@@H](CO)C(=O)N[C@@H](C)C(=O)N[C@@H](CCC(=O)O)C(=O)N[C@@H](CC(C)C)C(=O)N[C@@H](Cc1c[nH]cn1)C(=O)N[C@@H](CCC(=O)O)C(=O)N[C@@H](CC(C)C)C(=O)N[C@@H](CO)C(=O)N[C@H](C(=O)N[C@@H](Cc1ccc(O)cc1)C(=O)N1CCC[C@H]1C(=O)N[C@@H](CCCNC(=N)N)C(=O)N[C@H](C(=O)N[C@@H](CCC(=O)O)C(=O)N[C@H](C(=O)NCC(=O)N[C@@H](CO)C(=O)NCC(=O)N[C@@H](CO)C(=O)N[C@@H](Cc1ccc(O)cc1)C(N)=O)[C@@H](C)O)[C@@H](C)O)[C@@H](C)O, mimylin derivative; des1 = residue 1 deleted; also called Ex. #99; 99) [[N-terminal(C20 diacid-gGlu), des1, 9T, 21S, 23Y, 30S, 31G, 33Y]mimylin] | 0.154 | 0.159 |
| {C20 diacid-γGlu}-ASELSTAALGRLSAELHELATYPRTETGSGAP-NH2 (SMILES CC(C)C[C@H](NC(=O)[C@H](C)NC(=O)[C@H](C)NC(=O)[C@@H](NC(=O)[C@H](CO)NC(=O)[C@H](CC(C)C)NC(=O)[C@H](CCC(=O)O)NC(=O)[C@H](CO)NC(=O)[C@H](C)NC(=O)CC[C@H](NC(=O)CCCCCCCCCCCCCCCCCCC(=O)O)C(=O)O)[C@@H](C)O)C(=O)NCC(=O)N[C@@H](CCCNC(=N)N)C(=O)N[C@@H](CC(C)C)C(=O)N[C@@H](CO)C(=O)N[C@@H](C)C(=O)N[C@@H](CCC(=O)O)C(=O)N[C@@H](CC(C)C)C(=O)N[C@@H](Cc1c[nH]cn1)C(=O)N[C@@H](CCC(=O)O)C(=O)N[C@@H](CC(C)C)C(=O)N[C@@H](C)C(=O)N[C@H](C(=O)N[C@@H](Cc1ccc(O)cc1)C(=O)N1CCC[C@H]1C(=O)N[C@@H](CCCNC(=N)N)C(=O)N[C@H](C(=O)N[C@@H](CCC(=O)O)C(=O)N[C@H](C(=O)NCC(=O)N[C@@H](CO)C(=O)NCC(=O)N[C@@H](C)C(=O)N1CCC[C@H]1C(N)=O)[C@@H](C)O)[C@@H](C)O)[C@@H](C)O, mimylin derivative; des1 = residue 1 deleted; also called Ex. #81; 81) [[N-terminal(C20 diacid-gGlu), des1, 23Y, 30S, 31G, 32A]mimylin] | 0.102 | 0.141 |
| {C20 diacid-γGlu}-ASELSTASLGRLSAELHELSTYPRTETGSGSY-NH2 (SMILES CC(C)C[C@H](NC(=O)[C@H](CO)NC(=O)[C@H](C)NC(=O)[C@@H](NC(=O)[C@H](CO)NC(=O)[C@H](CC(C)C)NC(=O)[C@H](CCC(=O)O)NC(=O)[C@H](CO)NC(=O)[C@H](C)NC(=O)CC[C@H](NC(=O)CCCCCCCCCCCCCCCCCCC(=O)O)C(=O)O)[C@@H](C)O)C(=O)NCC(=O)N[C@@H](CCCNC(=N)N)C(=O)N[C@@H](CC(C)C)C(=O)N[C@@H](CO)C(=O)N[C@@H](C)C(=O)N[C@@H](CCC(=O)O)C(=O)N[C@@H](CC(C)C)C(=O)N[C@@H](Cc1c[nH]cn1)C(=O)N[C@@H](CCC(=O)O)C(=O)N[C@@H](CC(C)C)C(=O)N[C@@H](CO)C(=O)N[C@H](C(=O)N[C@@H](Cc1ccc(O)cc1)C(=O)N1CCC[C@H]1C(=O)N[C@@H](CCCNC(=N)N)C(=O)N[C@H](C(=O)N[C@@H](CCC(=O)O)C(=O)N[C@H](C(=O)NCC(=O)N[C@@H](CO)C(=O)NCC(=O)N[C@@H](CO)C(=O)N[C@@H](Cc1ccc(O)cc1)C(N)=O)[C@@H](C)O)[C@@H](C)O)[C@@H](C)O, mimylin derivative; des1 = residue 1 deleted; also called Ex. #100; 100) [[N-terminal(C20 diacid-gGlu), des1, 9S, 21S, 23Y, 30S, 31G, 33Y]mimylin] | 0.1 | 0.171 |

Results, then the binder that gave them:

| IC50 [1] [nM] | IC50 [2] [nM] | Binder |
| --- | --- | --- |
| 0.097 | 0.565 | {C20 diacid-γGlu}-ASELSTAALGHLSAELHELATLPRTETGSGSP-NH2 (mimylin derivative; also called Ex. #72; 72) [[N-terminal(C20 diacid-gGlu), des1, 12H, 30S, 31G]mimylin] |
| 0.07 | 0.394 | {C20 diacid-γGlu}-ASELSTAALGRLSAELHELATYPRTETGSGSP-NH2 (SMILES CC(C)C[C@H](NC(=O)[C@H](C)NC(=O)[C@H](C)NC(=O)[C@@H](NC(=O)[C@H](CO)NC(=O)[C@H](CC(C)C)NC(=O)[C@H](CCC(=O)O)NC(=O)[C@H](CO)NC(=O)[C@H](C)NC(=O)CC[C@H](NC(=O)CCCCCCCCCCCCCCCCCCC(=O)O)C(=O)O)[C@@H](C)O)C(=O)NCC(=O)N[C@@H](CCCNC(=N)N)C(=O)N[C@@H](CC(C)C)C(=O)N[C@@H](CO)C(=O)N[C@@H](C)C(=O)N[C@@H](CCC(=O)O)C(=O)N[C@@H](CC(C)C)C(=O)N[C@@H](Cc1c[nH]cn1)C(=O)N[C@@H](CCC(=O)O)C(=O)N[C@@H](CC(C)C)C(=O)N[C@@H](C)C(=O)N[C@H](C(=O)N[C@@H](Cc1ccc(O)cc1)C(=O)N1CCC[C@H]1C(=O)N[C@@H](CCCNC(=N)N)C(=O)N[C@H](C(=O)N[C@@H](CCC(=O)O)C(=O)N[C@H](C(=O)NCC(=O)N[C@@H](CO)C(=O)NCC(=O)N[C@@H](CO)C(=O)N1CCC[C@H]1C(N)=O)[C@@H](C)O)[C@@H](C)O)[C@@H](C)O, mimylin derivative; des1 = residue 1 deleted; also called Ex. #56; 56) [[N-terminal(C20 diacid-gGlu), des1, 23Y, 30S, 31G]mimylin] |
| 0.022 | 0.029 | {C20 diacid-γGlu}-ASELSTAALGRLS[dE]ELHELATLPRTETGSGSP-NH2 (SMILES CC(C)C[C@H](NC(=O)[C@H](C)NC(=O)[C@H](C)NC(=O)[C@@H](NC(=O)[C@H](CO)NC(=O)[C@H](CC(C)C)NC(=O)[C@H](CCC(=O)O)NC(=O)[C@H](CO)NC(=O)[C@H](C)NC(=O)CC[C@H](NC(=O)CCCCCCCCCCCCCCCCCCC(=O)O)C(=O)O)[C@@H](C)O)C(=O)NCC(=O)N[C@@H](CCCNC(=N)N)C(=O)N[C@@H](CC(C)C)C(=O)N[C@@H](CO)C(=O)N[C@H](CCC(=O)O)C(=O)N[C@@H](CCC(=O)O)C(=O)N[C@@H](CC(C)C)C(=O)N[C@@H](Cc1c[nH]cn1)C(=O)N[C@@H](CCC(=O)O)C(=O)N[C@@H](CC(C)C)C(=O)N[C@@H](C)C(=O)N[C@H](C(=O)N[C@@H](CC(C)C)C(=O)N1CCC[C@H]1C(=O)N[C@@H](CCCNC(=N)N)C(=O)N[C@H](C(=O)N[C@@H](CCC(=O)O)C(=O)N[C@H](C(=O)NCC(=O)N[C@@H](CO)C(=O)NCC(=O)N[C@@H](CO)C(=O)N1CCC[C@H]1C(N)=O)[C@@H](C)O)[C@@H](C)O)[C@@H](C)O, mimylin derivative; des1 = residue 1 deleted; lower case e = D-form of Glu; also called Ex. #67; 67) [[N-terminal(C20 diacid-gGlu), des1, 15e, 30S, 31G]mimylin] |
